B1: HA-raptor^1020-1335 (other)
chain: NRNPGVPSVVKFHPFTPCIAVADKDSICFWDWEKGEKLDYFHNGNPRYTRVTAMEYLNGQDCSLLLTATDDGAIRVWKNFADLEKNPEMVTAWQGLSDMLPTTRGAGMVVDWEQETGLLMSSGDVRIVRIWDTDREMKVQDIPTGADSCVTSLSCDSHRSLIVAGLGDGSIRVYDRRMALSECRVMTYREHTAWVVKASLQKRPDGHIVSVSVNGDVRIFDPRMPESVNVLQIVKGLTALDIHPQADLIACGSVNQFTAIYNSSGELINNIKYYDGFMGQRVGAISCLAFHPHWPHLAVGSNDYYISVYSVEKRVR
notes: also called WD40 repeat region of raptor; not shown: HA tag
B2: PLD2^ΔN308 (enzyme)
chain: LAQGPGRDFLQLHRHDSYAPPRPGTLARWFVNGAGYFAAVADAILRAQEEIFITDWWLSPEVYLKRPAHSDDWRLDIMLKRKAEEGVRVSILLFKEVELALGINSGYSKRALMLLHPNIKVMRHPDQVTLWAHHEKLLVVDQVVAFLGGLDLAYGRWDDLHYRLTDLGDSSESAASQPPTPRPDSPATPDLSHNQFFWLGKDYSNLITKDWVQLDRPFEDFIDRETTPRMPWRDVGVVVHGLPARDLARHFIQRWNFTKTTKAKYKTPIYPYLLPKSTSTANQLPFTLPGGQCTTVQVLRSVDRWSAGTLENSILNAYLHTIRESQHFLYIENQFFISCSDGRTVLNKVGDEIVDRILKAHKQGWCYRVYVLLPLLPGFEGDISTGGGNSIQAILHFTYRTLCRGEYSILHRLKAAMGTAWRDYISICGLRTHGELGGHPVSELIYIHSKVLIADDRTVIIGSANINDRSLLGKRDSELAVLIEDTETEPSLMNGAEYQAGRFALSLRKHCFGVILGANTRPDLDLRDPICDDFFQLWQDMAESNANIYEQIFRCLPSNATRSLRTLREYVAVEPLATVSPPLARSELTQVQGHLVHFPLKFLEDESLLPPLGSKEGMIPLEVWT
notes: N-terminal 308 residues deleted, by analogy with ΔN184; also called ΔN308 PLD2

Columns and labels:
[1] = molecular target: T1, phospholipase D2, wild type (PLD2^wt) (Homo sapiens, UniProt O14939 1-933); experiment: co-IP with anti-HA antibody of HA-raptor constructs with PLD2^wt (FIG. 11)
T1 construct: also called recombinant PLD2; hPLD2
Procedure: (§1) After harvesting COS7 cells, total extracts were prepared by brief sonication in ice-cold lysis buffer (40 mM HEPES pH7.5, 120 mM NaCl, 1 mM EDTA, 10 mM pyrophosphate, 10 mM glycerophosphate, 50 mM NaF, 1.5 mM Na₃VO₄, 0.5% CHAPS, 1 mM PMSF, protease inhibitor cocktails). Clarified extracts were mixed with 2 μg of the respective antibodies. Then protein A-Sepharose beads were added to isolate the antibody complex. After four washings with lysis buffer, the final immunoprecipitates were washed once with wash buffer (50 mM HEPES pH7.5, 150 mM NaCl), and then subjected to SDS-PAGE using Hyperfilm (Amersham Pharmacia Biotech), nitrocellulose membranes (Watmann), Power supply (Amersham Pharmacia Biotech), Electrophoretic Transfer unit (Hoefer Scientific Instruments), and ECL™ (Amersham Pharmacia Biotech).

myc-mTOR^wt = myc-mTOR^wt (human, UniProt P42345 1-2549); experiment: co-IP of myc-mTOR^wt with PLD2 fragments (FIG. 5)
Procedure: as §1

Binder	binding result [1]	binding result (myc-mTOR^wt)
B1	binds	
B2		no binding

Source: patent US20100184636A1 (POSTECH ACADEMY INDUSTRY FOUNDATION, published 2010)
